Each block holds one binder with its values, some of them ahead of it.
What was measured:
[1] = target: T1, 4H2903-AA; experiment: two-hybrid library CCmax;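 also: natural log of median RNA to DNA barcode read ratio; higher means stronger binding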
T1 chain: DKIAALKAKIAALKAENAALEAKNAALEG

[2] = target: T2, 4H2947-AA; experiment: two-hybrid library CCmax; conditions: mean of both orientations;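 also: natural log of median RNA to DNA barcode read ratio; higher means stronger binding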
T2 chain: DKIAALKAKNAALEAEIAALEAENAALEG

[3] = target: T3, 4H2961-AA; experiment: two-hybrid library CCmax; conditions: mean of both orientations;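 also: natural log of median RNA to DNA barcode read ratio; higher means stronger binding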
T3 chain: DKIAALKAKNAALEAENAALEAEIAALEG

[4] = target: T4, 4H3049-AA; experiment: two-hybrid library CCmax; conditions: mean of both orientations;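 also: natural log of median RNA to DNA barcode read ratio; higher means stronger binding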
T4 chain: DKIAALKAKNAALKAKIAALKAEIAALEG

[5] = target: T5, 4H3094-AA; experiment: two-hybrid library CCmax; conditions: mean of both orientations;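 also: natural log of median RNA to DNA barcode read ratio; higher means stronger binding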
T5 chain: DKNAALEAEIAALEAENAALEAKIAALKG

[6] = target: T6, 4H3129-AA; experiment: two-hybrid library CCmax; conditions: mean of both orientations;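 also: natural log of median RNA to DNA barcode read ratio; higher means stronger binding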
T6 chain: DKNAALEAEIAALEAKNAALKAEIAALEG

[7] = target: T7, 4H324-AA; experiment: two-hybrid library CCmax; conditions: mean of both orientations
T7 chain: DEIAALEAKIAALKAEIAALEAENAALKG

[8] = target: T8, 4H341-AA; experiment: two-hybrid library CCmax; conditions: mean of both orientations
T8 chain: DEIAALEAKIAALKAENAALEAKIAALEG

[9] = target: T9, 4H3414-AA; experiment: two-hybrid library CCmax; conditions: mean of both orientations
T9 chain: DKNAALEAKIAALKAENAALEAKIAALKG

[10] = target: T10, 4H3449-AA; experiment: two-hybrid library CCmax; conditions: mean of both orientations
T10 chain: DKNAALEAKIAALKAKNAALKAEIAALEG

[11] = target: T11, 4H3595-AA; experiment: two-hybrid library CCmax; conditions: mean of both orientations
T11 chain: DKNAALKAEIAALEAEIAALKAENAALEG

[12] = target: T12, 4H3619-AA; experiment: two-hybrid library CCmax; conditions: mean of both orientations
T12 chain: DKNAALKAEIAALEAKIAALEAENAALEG

[13] = target: T13, 4H3629-AA; experiment: two-hybrid library CCmax; conditions: mean of both orientations
T13 chain: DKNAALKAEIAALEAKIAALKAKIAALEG

[14] = target: T14, 4H3777-AA; experiment: two-hybrid library CCmax; conditions: mean of both orientations
T14 chain: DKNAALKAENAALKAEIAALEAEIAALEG

[15] = target: T15, 4H3782-AA; experiment: two-hybrid library CCmax; conditions: mean of both orientations
T15 chain: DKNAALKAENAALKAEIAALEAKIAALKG

[16] = target: T16, 4H380-AA; experiment: two-hybrid library CCmax; conditions: mean of both orientations
T16 chain: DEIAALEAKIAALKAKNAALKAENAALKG

[17] = target: T17, 4H3915-AA; experiment: two-hybrid library CCmax; conditions: mean of both orientations
T17 chain: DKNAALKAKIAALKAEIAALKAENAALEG

[18] = target: T18, 4H3939-AA; experiment: two-hybrid library CCmax; conditions: mean of both orientations
T18 chain: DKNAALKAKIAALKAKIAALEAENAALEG

[19] = target: T19, 4H3969-AA; experiment: two-hybrid library CCmax; conditions: mean of both orientations
T19 chain: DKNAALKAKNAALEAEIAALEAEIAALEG

[20] = target: T20, 4H3974-AA; experiment: two-hybrid library CCmax; conditions: mean of both orientations
T20 chain: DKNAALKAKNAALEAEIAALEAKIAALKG

[21] = target: T21, 4H432-AA; experiment: two-hybrid library CCmax; conditions: mean of both orientations
T21 chain: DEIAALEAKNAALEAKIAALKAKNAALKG

[22] = target: T22, 4H446-AA; experiment: two-hybrid library CCmax; conditions: mean of both orientations
T22 chain: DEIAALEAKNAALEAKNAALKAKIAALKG

[23] = target: T23, 4H464-AA; experiment: two-hybrid library CCmax; conditions: mean of both orientations
T23 chain: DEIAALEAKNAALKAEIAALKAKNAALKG

[24] = target: T24, 4H483-AA; experiment: two-hybrid library CCmax; conditions: mean of both orientations
T24 chain: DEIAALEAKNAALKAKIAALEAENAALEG

[25] = target: T25, 4H63-AA; experiment: two-hybrid library CCmax; conditions: mean of both orientations
T25 chain: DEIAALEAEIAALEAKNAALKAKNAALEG

[26] = target: T26, O8-bA; experiment: two-hybrid library CCNG1
T26 chain: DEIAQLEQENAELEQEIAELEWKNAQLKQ

[27] = target: T27, O9-bA; experiment: two-hybrid library CCNG1
T27 chain: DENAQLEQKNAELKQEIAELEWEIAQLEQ

[28] = target: T28, 4H3905-AA; experiment: two-hybrid library CCmax
T28 chain: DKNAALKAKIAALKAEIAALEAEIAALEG

[29] = target: T29, 4H4038-AA; experiment: two-hybrid library CCmax; conditions: mean of both orientations
T29 chain: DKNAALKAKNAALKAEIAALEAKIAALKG

[30] = target: T30, 4H43-AA; experiment: two-hybrid library CCmax; conditions: mean of both orientations
T30 chain: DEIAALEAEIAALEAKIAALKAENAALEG

[31] = target: T31, 4H451-AA; experiment: two-hybrid library CCmax; conditions: mean of both orientations
T31 chain: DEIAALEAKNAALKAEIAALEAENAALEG

[32] = target: T32, 4H510-AA; experiment: two-hybrid library CCmax; conditions: mean of both orientations
T32 chain: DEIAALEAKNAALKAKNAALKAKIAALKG

[33] = target: T33, 4H_APH; experiment: two-hybrid library CCmax; conditions: mean of both orientations
T33 chain: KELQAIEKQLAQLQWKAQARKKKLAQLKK

[34] = target: T34, 4H_BCR; experiment: two-hybrid library CCmax; conditions: mean of both orientations
T34 chain: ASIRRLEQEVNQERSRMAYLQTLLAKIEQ

[35] = target: 4H_GCN4; experiment: two-hybrid library CCmax
[36] = target: GCN2_T; experiment: two-hybrid library CCmax
[37] = target: T35, O11-AA; experiment: two-hybrid library CCmax; conditions: mean of both orientations
T35 chain: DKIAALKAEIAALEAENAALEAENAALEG

[38] = target: T36, O13-AA; experiment: two-hybrid library CCmax; conditions: mean of both orientations
T36 chain: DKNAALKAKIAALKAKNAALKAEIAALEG

[39] = target: T37, O14-AA; experiment: two-hybrid library CCmax; conditions: mean of both orientations
T37 chain: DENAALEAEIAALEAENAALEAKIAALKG

[40] = target: T38, 4H918-AA; experiment: two-hybrid library CCmax
T38 chain: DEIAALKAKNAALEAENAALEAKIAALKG

[41] = target: T39, 4H953-AA; experiment: two-hybrid library CCmax; conditions: mean of both orientations
T39 chain: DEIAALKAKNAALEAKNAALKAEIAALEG

[42] = target: T40, 4H967-AA; experiment: two-hybrid library CCmax; conditions: mean of both orientations
T40 chain: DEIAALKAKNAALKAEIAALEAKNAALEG

4H_GCN4, sequence (chain, as listed by the source): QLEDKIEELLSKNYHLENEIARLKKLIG

- interaction score [1]: -1.28
- interaction score [2]: -1.62
- interaction score [3]: -1.88
- interaction score [4]: -1.81
- interaction score [5]: -0.448
- interaction score [6]: -0.64
- interaction score [7]: -0.202
- interaction score [8]: -0.593
- interaction score [9]: -1.72
- interaction score [10]: -1.8
- interaction score [11]: -0.655
- interaction score [12]: -0.237
- interaction score [13]: -0.902
- interaction score [14]: -1.22
- interaction score [15]: -1.31
- interaction score [16]: 0.283
- interaction score [17]: -1.48
- interaction score [18]: -1.78
- interaction score [19]: -0.566
- interaction score [20]: -0.747
- interaction score [21]: -1.38
- interaction score [22]: -0.722
- interaction score [23]: -1.44
- interaction score [24]: -1.33
- interaction score [25]: 2.45
Binder: DKIAALKAKIAALKAENAALEAKNAALEG [4H2903-AA]

- interaction score [26]: -0.832
- interaction score [27]: 0.317
Binder: DEIAQLEQENAELEQEIAELEWKNAQLKQ [O8-bA]

- interaction score [28]: 1.48
- interaction score [29]: -0.568
- interaction score [30]: 0.782
- interaction score [31]: -1.34
- interaction score [32]: -1.37
- interaction score [33]: -1.84
- interaction score [34]: -1.61
- interaction score [35]: -1.53
- interaction score [36]: -1.53
- interaction score [37]: -1.04
- interaction score [38]: 0.128
- interaction score [39]: 0.881
Binder: DKNAALKAKIAALKAEIAALEAEIAALEG [4H3905-AA]

- interaction score [40]: 1.24
- interaction score [41]: 2.09
- interaction score [42]: -0.889
Binder: DEIAALKAKNAALEAENAALEAKIAALKG [4H918-AA]
